Test [1] has as its target T1, Cynomolgus monkey glycophorin A on Cynomolgus monkey red blood cells (Cynomolgus monkey).
T1 construct: whole, on cells; also called Cyno GPA; Cyno RBC
Nature of the test: partition to Cyno RBC, human HemA plasma, 15 min.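 Note: FVIII fusion spiked at 1 IU/mL into RBC suspension at whole-blood density.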
Protocol: (§1) To evaluate partition to cynomolgus monkey or human red blood cells, whole blood was draw from Cynomolgus monkey or normal human volunteers in to anticoagulant with 4% sodium citrate (Sigma, St Louis, Mo.). The red blood cells were purified by layering the whole blood on to ficoll followed by low speed centrifugation. The supernatant containing plasma, platelets and white blood cells was discarded and the red blood cell pellet was resuspended in 10 pellet volumes of PBS (50 mM Phosphate buffer, pH7.4, 150 mM NaCl). The red blood cells were then pelleted by slow speed centrifugation and the red blood cells re-suspended in 10 volumes of PBS. This washing step was repeated 4 more times and the red blood cells finally resuspended in a volume of plasma from Hemophilia patients with less than 1% of normal levels of FVIII (GeorgeKing Bio-Medical, Overland Park, Kans.) to generate a total volume equal to the initial blood volume such that the RBC density was equal to that of normal whole blood. BDD and RBC targeted FVIII molecules were then spiked into RBC suspension in HemA plasma at 1 IU/mL, and incubated at room temperature for 2-3 hours with gentle rotation. […] An additional control was performed in which BDD or RBC targeted FVIII molecules were added at 11U/ml into the same human hemophilia A plasma and incubated for 5 minutes and 180 mins. These samples were used to determine the input FVIII activity in the presence of plasma which was used to calculate the percentage of the molecule that was bound to RBC. All plasma samples were then assayed together for FVIII activity using the Coatest SP assay (DiaPharma, Columbus, Ohio). The assay was performed following the manufacturer's instructions in a 96-well plate format. […] The plate was incubated at 37° C. for 10 minutes with shaking between each reagent addition.

Test [2] addresses T1, Cynomolgus monkey glycophorin A on …. Nature of the test: partition to Cyno RBC, human HemA plasma, 60 min.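 Note: FVIII fusion spiked at 1 IU/mL into RBC suspension at whole-blood density.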
Protocol: as §1
The target of test [3] is T2, glycophorin A peptide GP5 (human, biotin at the N-terminus).
T2 construct: Residues 42 to 61 of the human glycophorin A extracellular domain
T2 peptide: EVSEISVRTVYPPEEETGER
Nature of the test: Octet, GP5 peptide on the probe, fusion protein in solution, 1:1 fit. For orientation: BLI is a label-free optical method that tracks binding on a fibre tip over time.

Test [4] has as its target T1, Cynomolgus monkey glycophorin A on …. Nature of the test: partition to Cyno RBC, human HemA plasma, 1 min.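 Note: FVIII fusion spiked at 1 IU/mL into RBC suspension at whole-blood density.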
Test [5] concerns the target T3, human glycophorin A on human red blood cells (human, UniProt P02724 20-150).
T3 construct: whole, on cells; also called human GPA; huGPA
T3 sequence (looked up): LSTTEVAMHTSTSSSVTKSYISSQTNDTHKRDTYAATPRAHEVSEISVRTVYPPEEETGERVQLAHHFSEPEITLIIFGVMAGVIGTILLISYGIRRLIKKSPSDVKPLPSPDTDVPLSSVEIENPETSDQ
As to the kind of experiment: partition to human RBC, vWF deficient plasma, 1 min.

Test [6] has as its target T3, human glycophorin A on human red blood …. As to the kind of experiment: partition to human RBC, vWF deficient plasma, 30 min.
The target is the same in test [7]. Nature of the test: partition to human RBC, vWF deficient plasma, 15 min.
For test [8], the target named is T1, Cynomolgus monkey glycophorin A on …. Nature of the test: partition to Cyno RBC, human HemA plasma, 30 min.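 Note: FVIII fusion spiked at 1 IU/mL into RBC suspension at whole-blood density.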
Test [9] has as its target T3, human glycophorin A on human red blood …. As to the kind of experiment: partition to human RBC, vWF deficient plasma, 60 min.
For test [10] the target is unchanged. As to the kind of experiment: partition to human RBC, vWF deficient plasma, 120 min.
The target is the same in test [11]. As to the kind of experiment: partition to human RBC, human HemA plasma, 120 min.
Protocol: (§2) The supernatant containing plasma, platelets and white blood cells was discarded and the red blood cell pellet was resuspended in 10 pellet volumes of PBS (50 mM Phosphate buffer, pH7.4, 150 mM NaCl). The red blood cells were then pelleted by slow speed centrifugation and the red blood cells re-suspended in 10 volumes of PBS. This washing step was repeated 4 more times and the red blood cells finally resuspended in a volume of plasma from Hemophilia patients with less than 1% of normal levels of FVIII (GeorgeKing Bio-Medical, Overland Park, Kans.) to generate a total volume equal to the initial blood volume such that the RBC density was equal to that of normal whole blood. BDD and RBC targeted FVIII molecules were then spiked into RBC suspension in HemA plasma at 1 IU/mL, and incubated at room temperature for 2-3 hours with gentle rotation. […] An additional control was performed in which BDD or RBC targeted FVIII molecules were added at 11U/ml into the same human hemophilia A plasma and incubated for 5 minutes and 180 mins. These samples were used to determine the input FVIII activity in the presence of plasma which was used to calculate the percentage of the molecule that was bound to RBC. All plasma samples were then assayed together for FVIII activity using the Coatest SP assay (DiaPharma, Columbus, Ohio). The assay was performed following the manufacturer's instructions in a 96-well plate format. […] The plate was incubated at 37° C. for 10 minutes with shaking between each reagent addition. […] The amount of FVIII activity in the plasma reflects the amount of unbound FVIII. The FVIII activity of the same molecule spiked in to Hemophilia A plasma alone (no RBC) and incubated for 5 minutes was normalized to 100%.
The target in test [12] is T1, Cynomolgus monkey glycophorin A on …. As to the kind of experiment: partition to Cyno RBC, human HemA plasma, 120 min.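 Note: FVIII fusion spiked at 1 IU/mL into RBC suspension at whole-blood density.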
The target is the same in test [13]. Nature of the test: partition to Cyno RBC, human HemA plasma, 5 min.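 Note: FVIII fusion spiked at 1 IU/mL into RBC suspension at whole-blood density.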
Protocol: as §1
Test [14] has as its target T3, human glycophorin A on human red blood …. As to the kind of experiment: partition to human RBC, vWF deficient plasma, 5 min.
Test [15] has the same target. Nature of the test: partition to human RBC, human HemA plasma, 30 min.
Protocol: as §2
Test [16] shares this target. Nature of the test: partition to human RBC, human HemA plasma, 60 min.
Protocol: as §2
The target is the same in test [17]. Nature of the test: partition to human RBC, human HemA plasma, 1 min.
The target is the same in test [18]. Nature of the test: partition to human RBC, human HemA plasma, 5 min.
Protocol: as §2
For test [19] the target is unchanged. Nature of the test: partition to human RBC, human HemA plasma, 120 min. This is another data set of the same source.
Protocol: as §2
Test [20] shares this target. As to the kind of experiment: partition to human RBC, human HemA plasma, 15 min.

This is an account of results in US20190359687A1 (Bayer, published 2019).

B1: TPP-8743 FVIII-scFv fusion protein (other)
chain: ATRRYYLGAVELSWDYMQSDLGELPVDARFPPRVPKSFPFNTSVVYKKTLFVEFTDHLFNIAKPRPPWMGLLGPTIQAEVYDTVVITLKNMASHPVSLHAVGVSYWKASEGAEYDDQTSQREKEDDKVFPGGSHTYVWQVLKENGPMASDPLCLTYSYLSHVDLVKDLNSGLIGALLVCREGSLAKEKTQTLHKFILLFAVFDEGKSWHSETKNSLMQDRDAASARAWPKMHTVNGYVNRSLPGLIGCHRKSVYWHVIGMGTTPEVHSIFLEGHTFLVRNHRQASLEISPITFLTAQTLLMDLGQFLLFCHISSHQHDGMEAYVKVDSCPEEPQLRMKNNEEAEDYDDDLTDSEMDVVRFDDDNSPSFIQIRSVAKKHPKTWVHYIAAEEEDWDYAPLVLAPDDRSYKSQYLNNGPQRIGRKYKKVRFMAYTDETFKTREAIQHESGILGPLLYGEVGDTLLIIFKNQASRPYNIYPHGITDVRPLYSRRLPKGVKHLKDFPILPGEIFKYKWTVTVEDGPTKSDPRCLTRYYSSFVNMERDLASGLIGPLLICYKESVDQRGNQIMSDKRNVILFSVFDENRSWYLTENIQRFLPNPAGVQLEDPEFQASNIMHSINGYVFDSLQLSVCLHEVAYWYILSIGAQTDFLSVFFSGYTFKHKMVYEDTLTLFPFSGETVFMSMENPGLWILGCHNSDFRNRGMTALLKVSSCDKNTGDYYEDSYEDISAYLLSKNNAIEPRSFSQNGGGGSTGGTGGSSGGGTGSGGGGTGGSGGTDIQLTQSPSFLSASVGDRVTITCRASSSVRYIYWFQQKPGKAPKLLIYATSFRQSGVPSRFSGSGSGTEYTLTISSLQPEDFATYYCHQRNSFPYTFGQGTKLEIKGGGGSGGGGSGGGGSGGGGSEVQLVQSGAEVKKPGASVKVSCKASGYTFTTYAIHWVRQAPGQGLEWMGYINPSSGYTRYNPKFKGRVTMTRDKSTSTAYMELRSLRSDDTAVYYCWTGTRDYWGQGTTVTVSSGGGGSQNPPVLKRHQREITDENQSPRSFQKKTRHYFIAAVERLWDYGMSSSPHVLRNRAQSGSVPQFKKVVFQEFTDGSFTQPLYRGELNEHLGLLGPYIRAEVEDNIMVTFRNQASRPYSFYSSLISYEEDQRQGAEPRKNFVKPNETKTYFWKVQHHMAPTKDEFDCKAWAYFSDVDLEKDVHSGLIGPLLVCHTNTLNPAHGRQVTVQEFALFFTIFDETKSWYFTENMERNCRAPCNIQMEDPTFKENYRFHAINGYIMDTLPGLVMAQDQRIRWYLLSMGSNENIHSIHFSGHVFTVRKKEEYKMALYNLYPGVFETVEMLPSKAGIWRVECLIGEHLHAGMSTLFLVYSNKCQTPLGMASGHIRDFQITASGQYGQWAPKLARLHYSGSINAWSTKEPFSWIKVDLLAPMIIHGIKTQGARQKFSSLYISQFIIMYSLDGKKWQTYRGNSTGTLMVFFGNVDSSGIKHNIFNPPIIARYIRLHPTHYSIRSTLRMELMGCDLNSCSMPLGMESKAISDAQITASSYFTNMFATWSPSKARLHLQGRSNAWRPQVNNPKEWLQVDFQKTMKVTGVTTQGVKSLLTSMYVKEFLISSSQDGHQWTLFFQNGKVKVFQGNQDSFTPVVNSLDPPLLTRYLRIHPQSWVHQIALRMEVLGCEAQDLY
notes: The entry is the mature protein without signal peptide; most of the material is cut at the furin site into two chains; also called PPB 6723
In general, Kd refers to the free concentration of one partner at which half of the binding sites on the other are occupied at equilibrium, for simple one-to-one binding. What is called koff is the first-order rate constant of dissociation. In general, kon refers to the rate constant with which the complex forms. On to B1, for which the “% bound to Cyno RBC” value in test [1] came to 65.7%; in test [2], 78.5%; in test [4], 17.4%; in [8], 73%; in test [12], 79%; in [13], 53%. For the same molecule, in test [3], the Kd was 4.89 nM. This molecule also yielded a koff in test [3] of 0.0027 s⁻¹. The same molecule registered a kon in [3] of 525000 M⁻¹ s⁻¹. The “percentage bound to human RBC” value in [5] is 45.9%; in test [6], 79.4%; in test [7], 78%; in test [9], 78.8%; in test [10] it was 79.6%; in test [11], 76.4%. Also, the “percentage bound to human RBC” value in test [14] is 69.5%.

B2: B-domain deleted FVIII (other, human, UniProt P00451 20-2351, looked up)
chain: ATRRYYLGAVELSWDYMQSDLGELPVDARFPPRVPKSFPFNTSVVYKKTLFVEFTDHLFNIAKPRPPWMGLLGPTIQAEVYDTVVITLKNMASHPVSLHAVGVSYWKASEGAEYDDQTSQREKEDDKVFPGGSHTYVWQVLKENGPMASDPLCLTYSYLSHVDLVKDLNSGLIGALLVCREGSLAKEKTQTLHKFILLFAVFDEGKSWHSETKNSLMQDRDAASARAWPKMHTVNGYVNRSLPGLIGCHRKSVYWHVIGMGTTPEVHSIFLEGHTFLVRNHRQASLEISPITFLTAQTLLMDLGQFLLFCHISSHQHDGMEAYVKVDSCPEEPQLRMKNNEEAEDYDDDLTDSEMDVVRFDDDNSPSFIQIRSVAKKHPKTWVHYIAAEEEDWDYAPLVLAPDDRSYKSQYLNNGPQRIGRKYKKVRFMAYTDETFKTREAIQHESGILGPLLYGEVGDTLLIIFKNQASRPYNIYPHGITDVRPLYSRRLPKGVKHLKDFPILPGEIFKYKWTVTVEDGPTKSDPRCLTRYYSSFVNMERDLASGLIGPLLICYKESVDQRGNQIMSDKRNVILFSVFDENRSWYLTENIQRFLPNPAGVQLEDPEFQASNIMHSINGYVFDSLQLSVCLHEVAYWYILSIGAQTDFLSVFFSGYTFKHKMVYEDTLTLFPFSGETVFMSMENPGLWILGCHNSDFRNRGMTALLKVSSCDKNTGDYYEDSYEDISAYLLSKNNAIEPRSFSQNPPVLKRHQREITRTTLQSDQEEIDYDDTISVEMKKEDFDIYDEDENQSPRSFQKKTRHYFIAAVERLWDYGMSSSPHVLRNRAQSGSVPQFKKVVFQEFTDGSFTQPLYRGELNEHLGLLGPYIRAEVEDNIMVTFRNQASRPYSFYSSLISYEEDQRQGAEPRKNFVKPNETKTYFWKVQHHMAPTKDEFDCKAWAYFSDVDLEKDVHSGLIGPLLVCHTNTLNPAHGRQVTVQEFALFFTIFDETKSWYFTENMERNCRAPCNIQMEDPTFKENYRFHAINGYIMDTLPGLVMAQDQRIRWYLLSMGSNENIHSIHFSGHVFTVRKKEEYKMALYNLYPGVFETVEMLPSKAGIWRVECLIGEHLHAGMSTLFLVYSNKCQTPLGMASGHIRDFQITASGQYGQWAPKLARLHYSGSINAWSTKEPFSWIKVDLLAPMIIHGIKTQGARQKFSSLYISQFIIMYSLDGKKWQTYRGNSTGTLMVFFGNVDSSGIKHNIFNPPIIARYIRLHPTHYSIRSTLRMELMGCDLNSCSMPLGMESKAISDAQITASSYFTNMFATWSPSKARLHLQGRSNAWRPQVNNPKEWLQVDFQKTMKVTGVTTQGVKSLLTSMYVKEFLISSSQDGHQWTLFFQNGKVKVFQGNQDSFTPVVNSLDPPLLTRYLRIHPQSWVHQIALRMEVLGCEAQDLY
notes: Untargeted control without scFv; also called BDD-FVIII; BDD
Turning to B2, the “percentage bound to human RBC” value in [15] amounted to 0%; in [16] it was 2%; in [17], 0%; in test [18], 2%; in test [19], 0%; in [20], 4%.
